Experimental data taken from patent US5558865, “HIV immunotherapeutics” (Nissin Shokuhin Kabushiki Kaisha, dated 1996).

Key:
native HIV-1MN gp120 [1] = target: T1, native HIV-1MN gp120 (HIV-1 strain MN, UniProt P05877); assay: Western blot
[2] = target: recombinant HIV-1MN gp120 (Agmed, Inc.) (HIV-1 strain MN, UniProt P05877); assay: Western blot
[3] = target: T2, V3 loop peptide of HIV-1 isolate MN (HIV-1 isolate MN); assay: peptide ELISA
T2 peptide: RIHIGPGRAFYTTKN

[4] = target: V3 loop peptide of HIV-1 isolate IIIB (HIV-1 isolate IIIB); assay: peptide ELISA
[5] = target: V3 loop peptide of HIV-1 isolate CDC4 (HIV-1 isolate CDC4); assay: peptide ELISA
[6] = target: V3 loop peptide of HIV-1 isolate NY/5 (HIV-1 isolate NY/5); assay: peptide ELISA
[7] = target: V3 loop peptide of HIV-1 isolate Z6 (HIV-1 isolate Z6); assay: peptide ELISA
[8] = target: V3 loop peptide of HIV-1 isolate Z2 (HIV-1 isolate Z2); assay: peptide ELISA
[9] = target: V3 loop peptide of HIV-1 isolate ELI (HIV-1 isolate ELI); assay: peptide ELISA
native HIV-1IIIB gp120 [10] = target: T3, native HIV-1IIIB gp120 (HIV-1 strain IIIB, UniProt P04578); assay: Western blot, colorimetric
[11] = target: recombinant HIV-1IIIB gp120 (DuPont-NEN) (HIV-1 strain IIIB, UniProt P04578); assay: Western blot, colorimetric
[12] = target: T4, IIIB loop peptide Peptide 2 (HIV-1 strain IIIB); assay: competition ELISA, 5 µg/ml antibody preincubated with 50 µg/ml peptide, on coated recombinant IIIB gp120
T4 peptide: RIQRGPGR

[13] = target: T5, IIIB loop peptide Peptide 3 (HIV-1 strain IIIB); assay: as above
T5 peptide: IQRGPGRA

[14] = target: T6, IIIB loop peptide Peptide 4 (HIV-1 strain IIIB); assay: as above
T6 peptide: QRGPGRAF

native HIV-1MN gp120 [15] = target: T1, native HIV-1MN gp120
[16] = target: T7, peptide of amino acids 302-316 of HIV-1MN gp120 (HIV-1 strain MN); assay: peptide ELISA
[17] = target: T8, peptide of amino acids 322-336 of HIV-1MN gp120 (HIV-1 strain MN); assay: peptide ELISA
T8 peptide: YTTKNIIGTIRQAHC

[18] = target: V3 loop peptide of HIV-1 isolate RF (HIV-1 isolate RF); assay: peptide ELISA
[19] = target: T7, peptide of amino acids 302-316 of …; assay: peptide ELISA, 19.0 ng NM-01
[20] = target: T9, peptide of amino acids 312-326 of HIV-1MN gp120 (HIV-1 strain MN); assay: peptide ELISA, 19.0 ng NM-01
T9 peptide: RIHIGPGRAFYTTKN

[21] = target: T8, peptide of amino acids 322-336 of …; assay: peptide ELISA, 19.0 ng NM-01
[22] = target: T7, peptide of amino acids 302-316 of …; assay: peptide ELISA, 4.75 ng NM-01
[23] = target: T9, peptide of amino acids 312-326 of …; assay: peptide ELISA, 4.75 ng NM-01
[24] = target: T8, peptide of amino acids 322-336 of …; assay: peptide ELISA, 4.75 ng NM-01
[25] = target: T7, peptide of amino acids 302-316 of …; assay: peptide ELISA, 9.50 ng NM-01
[26] = target: T9, peptide of amino acids 312-326 of …; assay: peptide ELISA, 9.50 ng NM-01
[27] = target: T8, peptide of amino acids 322-336 of …; assay: peptide ELISA, 9.50 ng NM-01
native HIV-1IIIB gp120 [28] = target: T3, native HIV-1IIIB gp120; assay: immunofluorescence on slides of IIIB-infected H9 cells
native HIV-1MN gp120 [29] = target: T1, native HIV-1MN gp120; assay: ELISA, hybridoma supernatant on membranes of MN-infected and uninfected H9 cells

B1: monoclonal antibody P4/D10 (antibody, V domains shown)
VH: QIQLQQSGAELASPGASVTLSCKASGYTFTDHIMNWVKKRPGQGLEWIGRIFPVSGETNYNQKFMGKATFSVDRSSSTVSMVLNSLTSEDPAVYYCDLIYYDYEEDYYFDYWGQGTTLTV
VL: DIVLTQSPASLAVSLGQRATISCRASESVDDYGISFMHWYQQKLGQPPKLLIYRASNLESGIPARFSGSGSGTEFTLTINPVETDDVATYYCQQSNKDPLTFGAGTKLELKR
binds: binding result [4] | binding result (native HIV-1IIIB gp120 [10]) | binding result [11] | binding result [12]
no binding: binding result (native HIV-1MN gp120 [1]) | binding result [2] | binding result [3] | binding result [5] | binding result [6] | binding result [7] | binding result [8] | binding result [9]

B2: monoclonal antibody F58/H3 (antibody, V domains shown)
VH: B1 VH
VL: B1 VL
no binding: binding result (native HIV-1MN gp120 [1]) | binding result [2] | binding result [3] | binding result [5] | binding result [6] | binding result [7] | binding result [8] | binding result [9]
binds: binding result [4] | binding result (native HIV-1IIIB gp120 [10]) | binding result [11] | binding result [13] | binding result [14]

B3: monoclonal antibody NM-01 (antibody, V domains shown)
VH: QIQLKESGPAVIKPSQSLSLTCIVSGFSITSSSYCWHWIRQPPGKGLEWMGRICYEGSIDYSPSIKSRSTISRDTSLNRFFIQLSSVTNEDTAMYYCSRENHGTTTSMDYWGQGTSVTVSS
VL: DIVLTQSPASLAVSLGQRATISCRASESVDSYGNSFMHWYQQKPGQSPKLLIYVASNLESGVPARFSGSGSRTDFTLTIDPVEADDAATYYCQQNNEDPLTFGAGTKLELKR
0.028 OD 650 nm: optical density at 650 nm [27]
5.76 ratio: ELISA ratio, infected against uninfected cell membranes (Run 1) (native HIV-1MN gp120 [29])
9.81 ratio: RIA ratio cpm inf/cpm uninf (native HIV-1MN gp120 [15])
binds: binding result [4] | binding result [18] | binding result [5] | binding result [6] | binding result [11] | binding result (native HIV-1IIIB gp120 [28]) | binding result [14]
0.024 OD 650 nm: optical density at 650 nm [19] | optical density at 650 nm [22] | optical density at 650 nm [25]
no binding (tested: 19.0 ng): binding result [16] | binding result [17]
0.827 OD 650 nm: optical density at 650 nm [26]
no binding: binding result [7] | binding result [8] | binding result [9]
0.03 OD 650 nm: optical density at 650 nm [21] | optical density at 650 nm [24]
0.781 OD 650 nm: optical density at 650 nm [23]
1.14 OD 650 nm: optical density at 650 nm [20]
